Results published in the supplement of paper PMC9112550, “Optimization of the antimicrobial peptide Bac7 by deep mutational scanning” (BMC Biology, 2022).

Test system: Escherichia coli TOP10
Assay: shrunken log2 fold change of peptide-encoding DNA abundance (4.5 h post-induction vs induction); higher = less antimicrobial activity (less host growth inhibition)
Settings: time post-induction: 4.5 h; library: site-saturation at positions 5, 18, 19, 20
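Note: peptides expressed intracellularly from a pBAD plasmid library in pooled LB shake-flask culture, induced with 0.3% L-arabinose, DNA abundance read by NGS, three biological replicates, DESeq2 with apeglm shrinkage.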

Row | Sequence | shrunken log2 fold change
1 | RRIRHRPPRLPRPRPRPIICPRP | -0.168
2 | RRIRHRPPRLPRPRPRPQTAPRP | 0.00296
3 | RRIRRRPPRLPRPRPRPYLYPRP | -0.362
4 | RRIRERPPRLPRPRPRPYTVPRP | -0.74
5 | RRIRERPPRLPRPRPRPNEFPRP | -0.0497
6 | RRIRGRPPRLPRPRPRPQSVPRP | -0.199
7 | RRIRMRPPRLPRPRPRPYVQPRP | 0.056
8 | RRIRMRPPRLPRPRPRPWCKPRP | 0.0317
9 | RRIRARPPRLPRPRPRPIGDPRP | 0.24
10 | RRIRTRPPRLPRPRPRPFHVPRP | -0.0683
11 | RRIRIRPPRLPRPRPRPHQWPRP | -0.246
12 | RRIRDRPPRLPRPRPRPTVMPRP | -0.221
13 | RRIRRRPPRLPRPRPRPMKPPRP | 0.0733
14 | RRIRLRPPRLPRPRPRPDNVPRP | 0.0219
15 | RRIRWRPPRLPRPRPRPAREPRP | 0.138
16 | RRIRNRPPRLPRPRPRPLNNPRP | -0.478
17 | RRIRHRPPRLPRPRPRPIWIPRP | 0.0409
18 | RRIRTRPPRLPRPRPRPRRQPRP | -0.0389
19 | RRIRHRPPRLPRPRPRPWWYPRP | -0.0664
20 | RRIRERPPRLPRPRPRPMEIPRP | -0.221
21 | RRIRCRPPRLPRPRPRPYQPPRP | -0.152
22 | RRIRERPPRLPRPRPRPVDCPRP | 0.0769
23 | RRIRMRPPRLPRPRPRPNDNPRP | 0.504
24 | RRIRNRPPRLPRPRPRPYHLPRP | 0.0195
25 | RRIRMRPPRLPRPRPRPTNGPRP | -0.0328

Row | Sequence | shrunken log2 fold change
26 | RRIRCRPPRLPRPRPRPHLSPRP | -0.147
27 | RRIRFRPPRLPRPRPRPPDVPRP | 0.0274
28 | RRIRHRPPRLPRPRPRPYNAPRP | -0.00175
29 | RRIRDRPPRLPRPRPRPDDDPRP | -0.00186
30 | RRIRNRPPRLPRPRPRPVLNPRP | -0.261
31 | RRIRGRPPRLPRPRPRPPTHPRP | 0.617
32 | RRIRFRPPRLPRPRPRPCAYPRP | 2.21
33 | RRIRERPPRLPRPRPRPCSNPRP | 0.0168
34 | RRIRPRPPRLPRPRPRPCFYPRP | -0.242
35 | RRIRQRPPRLPRPRPRPYDNPRP | -0.0495
36 | RRIRTRPPRLPRPRPRPGCLPRP | 0.172
37 | RRIRTRPPRLPRPRPRPESAPRP | 0.0458
38 | RRIRDRPPRLPRPRPRPGNSPRP | -0.0582
39 | RRIRQRPPRLPRPRPRPQFVPRP | -0.173
40 | RRIRWRPPRLPRPRPRPTDIPRP | -0.151
41 | RRIRVRPPRLPRPRPRPMCRPRP | -0.0485
42 | RRIRTRPPRLPRPRPRPVSTPRP | 0.137
43 | RRIRARPPRLPRPRPRPVLDPRP | 0.185
44 | RRIRCRPPRLPRPRPRPPPIPRP | 0.998
45 | RRIRTRPPRLPRPRPRPQWLPRP | -0.455
46 | RRIRDRPPRLPRPRPRPCWQPRP | 0.0562
47 | RRIRFRPPRLPRPRPRPDLMPRP | -0.114
48 | RRIRCRPPRLPRPRPRPKSSPRP | 0.122
49 | RRIRTRPPRLPRPRPRPVCSPRP | -0.247
50 | RRIRSRPPRLPRPRPRPHIRPRP | -0.632

Row | Sequence | shrunken log2 fold change
51 | RRIRNRPPRLPRPRPRPKYSPRP | -0.379
52 | RRIRGRPPRLPRPRPRPNYWPRP | -0.115
53 | RRIRPRPPRLPRPRPRPRCWPRP | 0.689
54 | RRIRLRPPRLPRPRPRPKTMPRP | 0.0334
55 | RRIRDRPPRLPRPRPRPQSFPRP | -0.0337
56 | RRIRSRPPRLPRPRPRPLSDPRP | -0.0692
57 | RRIRVRPPRLPRPRPRPDGIPRP | -0.173
58 | RRIRARPPRLPRPRPRPNQCPRP | -0.176
59 | RRIRQRPPRLPRPRPRPGDDPRP | 0.176
60 | RRIRARPPRLPRPRPRPDMQPRP | 0.984
61 | RRIRGRPPRLPRPRPRPCIRPRP | 0.174
62 | RRIRSRPPRLPRPRPRPCYHPRP | -0.297
63 | RRIRRRPPRLPRPRPRPHGLPRP | 0.217
64 | RRIRIRPPRLPRPRPRPFRQPRP | 0.0326
65 | RRIRMRPPRLPRPRPRPPMAPRP | 0.841
66 | RRIRNRPPRLPRPRPRPAKMPRP | -0.0794
67 | RRIRVRPPRLPRPRPRPSMSPRP | -0.147
68 | RRIRWRPPRLPRPRPRPEDRPRP | 0.213
69 | RRIRSRPPRLPRPRPRPSNGPRP | -0.0205
70 | RRIRIRPPRLPRPRPRPFPWPRP | -0.519
71 | RRIRERPPRLPRPRPRPAVIPRP | -0.12
72 | RRIRGRPPRLPRPRPRPMSKPRP | 0.269
73 | RRIRRRPPRLPRPRPRPGQGPRP | 0.278
74 | RRIRKRPPRLPRPRPRPPHEPRP | 0.491
75 | RRIRSRPPRLPRPRPRPMWDPRP | 0.293

Row | Sequence | shrunken log2 fold change
76 | RRIRVRPPRLPRPRPRPSLVPRP | 0.974
77 | RRIRSRPPRLPRPRPRPTDNPRP | -0.249
78 | RRIRCRPPRLPRPRPRPCSHPRP | -1.29
79 | RRIRVRPPRLPRPRPRPWIDPRP | -0.134
80 | RRIRVRPPRLPRPRPRPWHVPRP | -0.0616
81 | RRIRTRPPRLPRPRPRPHDAPRP | -0.0483
82 | RRIRFRPPRLPRPRPRPDFMPRP | -0.27
83 | RRIRGRPPRLPRPRPRPWISPRP | -0.191
84 | RRIRNRPPRLPRPRPRPDWGPRP | 0.128
85 | RRIRPRPPRLPRPRPRPVWYPRP | -0.219
86 | RRIRERPPRLPRPRPRPSKRPRP | -0.00769
87 | RRIRDRPPRLPRPRPRPGKFPRP | -0.0736
88 | RRIRARPPRLPRPRPRPHEMPRP | 0.588
89 | RRIRGRPPRLPRPRPRPMIMPRP | -0.0509
90 | RRIRIRPPRLPRPRPRPSDLPRP | -0.0735
91 | RRIRERPPRLPRPRPRPCYIPRP | -0.0464
92 | RRIRQRPPRLPRPRPRPSLVPRP | -0.0806
93 | RRIRQRPPRLPRPRPRPALKPRP | 0.0439
94 | RRIRKRPPRLPRPRPRPGPLPRP | 0.578
95 | RRIRARPPRLPRPRPRPCWHPRP | 0.134
96 | RRIRQRPPRLPRPRPRPHVDPRP | -0.088
97 | RRIRCRPPRLPRPRPRPNCTPRP | -0.322
98 | RRIRSRPPRLPRPRPRPMWFPRP | 0.14
99 | RRIRRRPPRLPRPRPRPEGNPRP | -0.0565
100 | RRIRLRPPRLPRPRPRPFWPPRP | 0.184

Row | Sequence | shrunken log2 fold change
101 | RRIRKRPPRLPRPRPRPKIYPRP | -0.0249
102 | RRIRYRPPRLPRPRPRPLNIPRP | -1.1
103 | RRIRQRPPRLPRPRPRPGICPRP | 0.156
104 | RRIRTRPPRLPRPRPRPIRDPRP | -0.288
105 | RRIRLRPPRLPRPRPRPDRIPRP | -0.123
106 | RRIRDRPPRLPRPRPRPVKWPRP | 0.00911
107 | RRIRLRPPRLPRPRPRPPNAPRP | 0.121
108 | RRIRERPPRLPRPRPRPIKTPRP | -0.139
109 | RRIRYRPPRLPRPRPRPEQRPRP | -0.067
110 | RRIRQRPPRLPRPRPRPCIMPRP | -0.748
111 | RRIRFRPPRLPRPRPRPVTGPRP | 0.0131
112 | RRIRGRPPRLPRPRPRPWKRPRP | -0.0496
113 | RRIRFRPPRLPRPRPRPFKYPRP | -1.26
114 | RRIRPRPPRLPRPRPRPFSLPRP | -0.365
115 | RRIRHRPPRLPRPRPRPSQCPRP | -0.325
116 | RRIRSRPPRLPRPRPRPEVPPRP | 0.0326
117 | RRIRHRPPRLPRPRPRPNLAPRP | 0.0843
118 | RRIRFRPPRLPRPRPRPFFPPRP | 0.386
119 | RRIRLRPPRLPRPRPRPQCQPRP | -0.399
120 | RRIRLRPPRLPRPRPRPVVHPRP | 0.93
121 | RRIRNRPPRLPRPRPRPIIEPRP | 0.00312
122 | RRIRRRPPRLPRPRPRPSSTPRP | 0.197
123 | RRIRWRPPRLPRPRPRPFGWPRP | 0.118
124 | RRIRARPPRLPRPRPRPMMTPRP | 0.331
125 | RRIRARPPRLPRPRPRPMWPPRP | 0.527

Row | Sequence | shrunken log2 fold change
126 | RRIRERPPRLPRPRPRPMAQPRP | 0.00812
127 | RRIRQRPPRLPRPRPRPTHIPRP | -0.387
128 | RRIRMRPPRLPRPRPRPDTQPRP | 0.393
129 | RRIRGRPPRLPRPRPRPTFWPRP | 1.51
130 | RRIRFRPPRLPRPRPRPREAPRP | 0.115
131 | RRIRRRPPRLPRPRPRPHKDPRP | -0.11
132 | RRIRMRPPRLPRPRPRPDRSPRP | -0.178
133 | RRIRGRPPRLPRPRPRPEAIPRP | 1.82
134 | RRIRYRPPRLPRPRPRPAMVPRP | -0.136
135 | RRIRFRPPRLPRPRPRPTCEPRP | 0.0933
136 | RRIRMRPPRLPRPRPRPWKMPRP | 0.0322
137 | RRIRHRPPRLPRPRPRPNHEPRP | -0.493
138 | RRIRPRPPRLPRPRPRPEWKPRP | -0.00168
139 | RRIRPRPPRLPRPRPRPHEMPRP | -0.142
140 | RRIRCRPPRLPRPRPRPRCWPRP | 0.502
141 | RRIRDRPPRLPRPRPRPMHVPRP | -0.00476
142 | RRIRSRPPRLPRPRPRPWVAPRP | 0.0561
143 | RRIRVRPPRLPRPRPRPHVVPRP | -0.479
144 | RRIRGRPPRLPRPRPRPAVPPRP | 0.686
145 | RRIRHRPPRLPRPRPRPCNNPRP | -0.188
146 | RRIRHRPPRLPRPRPRPVWQPRP | 0.0177
147 | RRIRHRPPRLPRPRPRPAEGPRP | -0.00235
148 | RRIRVRPPRLPRPRPRPSDIPRP | -0.965
149 | RRIRTRPPRLPRPRPRPMTSPRP | -0.168
150 | RRIRTRPPRLPRPRPRPWGWPRP | -0.0131
